# Experimental data from patent EP0765166B1, “RADIOLABELED ANNEXIN-GALACTOSE CONJUGATES” (NEORX CORPORATION, priority 1994, dated 1995).
# Conditions: in vivo, iv
# Method: • A. Animal Preparation - LA Vascular Thrombi. Fasting 25-30 kg Yorkshire swine were sedated with intramuscular Telazol (5-10 mg/kg) (commercially available from AVECO Co.) and commercially available Atropine (1 mg, Elkins-Sinn, Inc., Cherry Hill, NJ). Surital (200 mg) (commercially available from Abbott Laboratories) anaesthesia was administered intravenously. The animals were intubated and given inhalation anaesthesia of 1.5-2% halothane (commercially available from Abbott Laboratories) and O2 sufficient to obtain a deep level of anesthesia and physiologic arterial blood gases. Continuous electrocardiographic monitoring was instituted using alligator clip electrodes. A cut down in the neck region was conducted, and an 8 french catheter (USCI Co, Billerica, MA) was placed in the right common carotid artery for blood pressure and arterial blood gas monitoring as well as for blood sampling. The swine were placed in a right lateral decubitus position, and a lateral thoracotomy was performed to expose the heart. The incision was held open by a thoracotomy retractor. The pericardium was opened, and the left atrial appendage was isolated from the left atrium by a vascular cross- clamp. Rubber tipped forceps were used to gently crush the appendage. Five minutes later, ricinoleate (1 mg, ICN Pharmaceuticals, Costa Mesa, CA) and thrombin ([…], Johnson and Johnson Co., Arlington, Texas) were injected into the LAA (left atrial appendage) using a 27 Ga needle. The cross-clamp was removed 10 minutes later. One hour after the crush injury, Tc-99m-annexin V, prepared in accordance with Example I above, was administered as an intravenous bolus dose in an ear vein. The intravenous line was then flushed with saline. In 7 animals, I-125 labeled ovalbumin was administered as a non-specific control preparable, for example, by the procedure described by Fraker et al., Biochem. Biophys. Res. Commun. 80: 849-57, 1978). Briefly, I-125-radiolabeled ovalbumin was prepared by the Iodogen method, employing 600 µg ovalbumin (Sigma Chemical Co., St. Louis, Missouri) and NaI-125 (2mCi, 0.92 nmol). Image acquisition was performed as described below. At the end of the experimental procedure (generally about 150 minutes), the animals were sacrificed by an intravenous bolus dose of 80 mEq of KCl while the animals were still under general anaesthetic. A final blood sample was taken for well counting. The heart was rapidly excised, washed free of blood and dissected into samples for well counting. Additional samples of carotid artery, lung, liver, spleen, muscle and kidney were obtained in some animals. • B. Controls. Five different types of controls were used: open chest sham; closed chest sham; ovalbumin; indium platelets; and non-specific Tc-99m-labeled antibody. • 1. Open Chest Sham. […]
substance,measurement,value
Tc-99m-annexin V: Annexin V radiolabeled with Tc-99m by using a diamide dimercaptide N2S2 chelate (Comparative Example I),a,a = 0.0389 %ID/g
same,b,b = 0.0300 %ID/g
same,t1/2 a,t1/2 a = 9.6 min
same,t1/2 b,t1/2 b = 46 min
